Experimental data reported in patent publication US20160222085A1 (CHILDREN S HOSPITAL OF PHILADELPHIA, published 2016).
Ends that are not written are not given here.

What was measured:
[1] = target: T1, FV-810^R1545Q pretreated with thrombin (human, UniProt P12259 29-737; P12259 738-838; P12259 1520-2224); assay: fluorescence anisotropy; thrombin-pretreated protein titrated into 30 nM OG488-BR, 50 uM PCPS; n=1 assumed
T1 construct: Cleaved only at Arg709: B-domain remnant stays tethered to the light chain; also called thrombin-cleaved FV-810^R1545Q
T1 sequence (P12259 29-737, chain 1 of 2): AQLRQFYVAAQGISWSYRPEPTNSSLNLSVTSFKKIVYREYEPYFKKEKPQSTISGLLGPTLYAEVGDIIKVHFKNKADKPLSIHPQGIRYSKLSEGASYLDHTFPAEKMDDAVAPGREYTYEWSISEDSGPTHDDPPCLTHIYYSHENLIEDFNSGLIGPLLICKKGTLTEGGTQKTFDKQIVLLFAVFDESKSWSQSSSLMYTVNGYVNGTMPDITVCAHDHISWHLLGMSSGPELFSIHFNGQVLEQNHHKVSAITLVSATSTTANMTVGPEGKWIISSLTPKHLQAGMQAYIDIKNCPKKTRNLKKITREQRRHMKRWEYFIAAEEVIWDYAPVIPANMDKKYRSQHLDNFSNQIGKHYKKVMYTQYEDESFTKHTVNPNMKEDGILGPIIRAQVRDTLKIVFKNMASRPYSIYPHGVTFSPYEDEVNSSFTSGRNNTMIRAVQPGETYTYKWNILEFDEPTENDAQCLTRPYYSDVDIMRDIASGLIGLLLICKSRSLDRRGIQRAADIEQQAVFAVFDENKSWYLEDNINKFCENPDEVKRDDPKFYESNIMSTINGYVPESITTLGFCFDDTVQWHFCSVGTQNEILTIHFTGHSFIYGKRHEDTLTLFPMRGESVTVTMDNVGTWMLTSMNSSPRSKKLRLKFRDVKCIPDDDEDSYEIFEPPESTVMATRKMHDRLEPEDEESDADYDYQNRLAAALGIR
T1 sequence (P12259 other isoform, or with tags, fused parts or gaps R1545Q R1545Q, chain 2 of 2): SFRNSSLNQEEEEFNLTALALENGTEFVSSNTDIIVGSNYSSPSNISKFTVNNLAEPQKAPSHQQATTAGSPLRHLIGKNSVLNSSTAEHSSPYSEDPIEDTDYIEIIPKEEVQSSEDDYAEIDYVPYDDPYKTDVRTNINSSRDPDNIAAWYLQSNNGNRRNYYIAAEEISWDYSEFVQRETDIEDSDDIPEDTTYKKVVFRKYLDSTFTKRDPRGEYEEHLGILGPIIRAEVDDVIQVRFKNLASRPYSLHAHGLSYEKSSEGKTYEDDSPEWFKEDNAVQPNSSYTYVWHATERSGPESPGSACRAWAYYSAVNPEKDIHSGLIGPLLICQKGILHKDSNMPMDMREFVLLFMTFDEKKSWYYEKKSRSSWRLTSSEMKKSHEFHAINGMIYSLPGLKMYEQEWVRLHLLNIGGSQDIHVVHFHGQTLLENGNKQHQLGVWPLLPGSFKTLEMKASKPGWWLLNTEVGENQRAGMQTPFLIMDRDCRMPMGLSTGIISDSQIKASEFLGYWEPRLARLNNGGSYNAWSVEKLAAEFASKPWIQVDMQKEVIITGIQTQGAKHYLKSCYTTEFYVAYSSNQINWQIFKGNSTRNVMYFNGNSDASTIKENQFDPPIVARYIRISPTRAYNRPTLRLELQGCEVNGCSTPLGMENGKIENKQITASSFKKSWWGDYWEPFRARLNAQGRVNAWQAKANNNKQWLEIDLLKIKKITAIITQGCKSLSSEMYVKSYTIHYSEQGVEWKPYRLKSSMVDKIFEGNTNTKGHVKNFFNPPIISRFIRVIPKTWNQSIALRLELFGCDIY
Procedure: (§1) FV-810, FV-810^R709Q (▴), FV-810^R1545Q (♦), and FV-810^QQ (▪) were pretreated with buffer (FIG. 14A) or thrombin (FIG. 14B).
(§2) Steady-state fluorescence anisotropy was measured at 25° C. in a PTI Quanta-Master™ fluorescence spectrophotometer (Photon Technology International, Birmingham, N.J.) using excitation and emission wavelengths of 480 and 520 nm, respectively, with long-pass filters (KV500, CVI Melles Griot) in the emission beam.

FV-810^QQ [2] = target: T2, FV-810^QQ (human, UniProt P12259 29-838; P12259 1520-2224); assay: as above
T2 construct: range 1-810;range 1492-2196; Both thrombin sites (Arg709 and Arg1545) changed to Gln; the assay field says where thrombin pretreatment was used
T2 sequence (P12259 other isoform, or with tags, fused parts or gaps): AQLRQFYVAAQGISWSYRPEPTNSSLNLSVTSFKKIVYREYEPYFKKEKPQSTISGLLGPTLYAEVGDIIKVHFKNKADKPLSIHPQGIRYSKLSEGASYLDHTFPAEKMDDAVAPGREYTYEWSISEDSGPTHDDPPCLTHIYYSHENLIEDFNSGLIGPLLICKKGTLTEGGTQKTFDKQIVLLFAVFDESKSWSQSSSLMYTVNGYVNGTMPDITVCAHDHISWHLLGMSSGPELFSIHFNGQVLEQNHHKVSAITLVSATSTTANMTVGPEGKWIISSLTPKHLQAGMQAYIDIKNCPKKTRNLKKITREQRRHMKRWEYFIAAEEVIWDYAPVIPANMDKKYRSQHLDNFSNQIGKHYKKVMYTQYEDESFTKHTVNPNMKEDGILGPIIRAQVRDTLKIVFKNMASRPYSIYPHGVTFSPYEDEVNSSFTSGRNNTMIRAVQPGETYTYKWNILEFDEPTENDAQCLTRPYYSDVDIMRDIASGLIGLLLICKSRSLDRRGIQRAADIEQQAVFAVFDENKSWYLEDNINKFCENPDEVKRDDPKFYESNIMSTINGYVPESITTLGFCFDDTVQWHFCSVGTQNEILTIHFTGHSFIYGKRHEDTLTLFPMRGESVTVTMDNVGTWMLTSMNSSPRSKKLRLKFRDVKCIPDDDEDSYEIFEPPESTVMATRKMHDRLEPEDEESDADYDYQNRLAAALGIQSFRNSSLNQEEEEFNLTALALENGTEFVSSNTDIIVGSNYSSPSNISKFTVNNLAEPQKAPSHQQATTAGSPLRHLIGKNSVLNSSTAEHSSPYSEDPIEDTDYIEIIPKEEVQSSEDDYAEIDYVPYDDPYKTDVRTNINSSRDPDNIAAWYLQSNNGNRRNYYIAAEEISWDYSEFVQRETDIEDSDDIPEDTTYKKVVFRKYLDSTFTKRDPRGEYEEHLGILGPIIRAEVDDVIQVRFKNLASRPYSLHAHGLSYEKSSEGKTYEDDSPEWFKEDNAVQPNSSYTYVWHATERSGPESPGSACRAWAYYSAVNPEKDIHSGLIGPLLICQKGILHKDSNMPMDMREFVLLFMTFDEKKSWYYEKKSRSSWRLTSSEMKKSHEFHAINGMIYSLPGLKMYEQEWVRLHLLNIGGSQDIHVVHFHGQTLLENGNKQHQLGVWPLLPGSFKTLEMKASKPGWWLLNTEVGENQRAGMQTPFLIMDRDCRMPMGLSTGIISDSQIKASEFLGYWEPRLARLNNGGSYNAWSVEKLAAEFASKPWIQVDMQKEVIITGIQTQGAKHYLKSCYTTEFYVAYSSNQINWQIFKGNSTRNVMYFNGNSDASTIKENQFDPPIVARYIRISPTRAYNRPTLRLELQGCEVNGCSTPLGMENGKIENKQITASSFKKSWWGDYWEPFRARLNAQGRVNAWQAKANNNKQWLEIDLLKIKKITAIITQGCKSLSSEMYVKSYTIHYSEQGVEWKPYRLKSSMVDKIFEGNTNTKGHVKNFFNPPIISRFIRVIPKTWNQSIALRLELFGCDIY
Procedure: as §1, §2

[3] = target: T3, FV-810 (FV-DT), Factor V with amino acids 811-1491 deleted from the B-domain (human, UniProt P12259 29-838; P12259 1520-2224); assay: fluorescence anisotropy; buffer-pretreated protein titrated into 30 nM OG488-BR, 50 uM PCPS; n=1 assumed
T3 construct: range 1-810;range 1492-2196; Single-chain cofactor-like variant; All residue numbers count on mature Factor V (add 28 for the precursor)
T3 sequence (P12259 other isoform, or with tags, fused parts or gaps, form in doubt): as the sequence (P12259 other isoform, or with tags, fused parts or gaps) above, with Q709R, Q864R counted along it
Procedure: as §1, §2

FV-810^R709Q = target: T4, FV-810^R709Q (human, UniProt P12259 29-838; P12259 1520-2224); assay: as above
T4 construct: range 1-810;range 1492-2196; mature numbering
T4 sequence (P12259 other isoform, or with tags, fused parts or gaps R709Q R709Q): as the sequence (P12259 other isoform, or with tags, fused parts or gaps) above, with Q864R counted along it
Procedure: as §1, §2

FV-810^R1545Q = target: T5, FV-810^R1545Q (human, UniProt P12259 29-838; P12259 1520-2224); assay: as above
T5 construct: range 1-810;range 1492-2196; mature numbering
T5 sequence (P12259 other isoform, or with tags, fused parts or gaps R1545Q R1545Q): as the sequence (P12259 other isoform, or with tags, fused parts or gaps) above, with Q709R counted along it
Procedure: as §1, §2

FV-810^QQ [4] = target: T2, FV-810^QQ; assay: as above
Procedure: as §1, §2

[5] = target: T3, FV-810 (FV-DT), Factor V with amino …; assay: fluorescence anisotropy; FV-810 titrated into 20 or 40 nM OG488-BR, 50 uM PCPS, 25 C
Procedure: Control experiments were performed by titrating FV-810 into buffer containing 10 mM EDTA (X) or by titrating rFVa (▴).
as §2
Data were analyzed by nonlinear least squares regression analysis using the Marquardt algorithm (Bevington et al. (1992) Data Reduction and Error Analysis for the Physical Sciences, pp. 141-167, McGraw-Hill, New York), and the quality of each fit was assessed as described (Straume et al. (1992) Methods Enzymol., 210:87-105).

B1: Oregon Green 488 maleimide-modified BR (OG488-BR) (peptide)
peptide: C(Oregon Green 488 maleimide)SRAWGESTPLANKPGKQSGHPKFPRVRHKSLQVRQDGGKSRLKKSQFLIKTRKKKKEK
notes: also called fluorescently labeled FVBR
- Kd [1]: 30.3 nM
- Kd (FV-810^QQ [2]): 1.3 nM
- Kd [3]: 2.1 nM
- Kd (FV-810^R709Q): 7.1 nM
- Kd (FV-810^R1545Q): 2 nM
- Kd (FV-810^QQ [4]): 0.31 nM
- Kd [5]: 2.07 nM
